{"source": "patent US20220204643A1", "about": "(published 2022)", "binders": {"B1": {"name": "TCOL1006 (antibody, V domains shown)", "VH": "EVQLVESGGGLVQPGGSLRLSCAASGFPPRSFAMSWVRQAPGKGLEWVSSISGLGNSIYYAESVKGRFITSRDNSKSTVFLLMNSLRAEDTAVYYCAKSAFGGVPDGFDIWGQGTMVTVSS", "VL": "QSVVTQPPSASGPPGQTVTISCSGGRSNVASHAVHWYQHLPGTAPKLLIYNDHQRPSGVPDRFSGSKSGPSASLAISGLRSEDEADYYCATWDDSLGGRVVFGGGTKLTVLG", "notes": "VH/VL only"}, "B2": {"name": "TESO1003 (antibody, V domains shown)", "VH": "QVQLVESGGGVVQPGRSLRLSCAASGFTFSNYDMHWVRQAPGKGLEWVTVVSYDGTNKYYAESVQGRFTISRDNSKNTLYLQMNSLRTEDTAVYYCAKEGGWGNTVTTSYYYYGMDVWGQGTTVTVSS", "VL": "QIVLTQSPATLSLSPGERATLSCRASQSVSNYLAWYQQKPGQAPRLLIYDASNRATGIPARFSGSGSGTDFTLTISSLEPEDFAVYYCQQRSNWPPYTFGQGTKLDIKR", "notes": "VH/VL only"}, "B3": {"name": "TCOL1009 (antibody, V domains shown)", "VH": "PVQLVQSGAEVKKPGASVKVSCKASGDTFPNYVISWVRQAPGQGLEWVGCINTNNGKTNYVQKLQGRVILTTDTSTNTANMELRSLRFDDTAVYYCARERGQVRSYGMDVWGQGTAVTVSS", "VL": "PYELTQPPSVSVSPGQTANITCSGDKLGDICVCWYQQKPGQSPVLVIYQHNKRPSGIPERFSGSNSGNTATLTISATQATDEAIYYCQSWDSSSVLFGGGTKLTVLG", "notes": "VH/VL only"}, "B4": {"name": "TBLA1007 (antibody, V domains shown)", "VH": "QVQLVQSGAEVKKPGASVKVSCKASGYTFTNYGFSWVRQAPGQGLEWMGRITTYNRDTIYAQKFQGRVTMTTDTSTSTAYMELRSLRSDDTAVYFCARVVPGDSVYGAFDIWGQGTMVTVSS", "VL": "DIQMTQSPSSLSASVGDRVTITCRASQSISSYLNWYQQKPGRAPRLLIYAASRLQIGVPSRFSGSGSGTDFTLTISSLQPEDFATYYCQQSYRMPCSFGQGTKLEI", "notes": "VH/VL only"}, "B5": {"name": "TESO1006 (antibody, V domains shown)", "VH": "QLHLQESGPGLVKPSETLSLTCTVSGGSVSSSSYYWGWVRQPPGKGLEWIGHVYYSGRTYYNPSLKSRATISLDTSKNQFSLKLSSLTATDTAVYYCATIVAAYSYGFEFDPWGQGILVIVSS", "VL": "QSVLTQPPSVSAAPGQKVTISCSGGSSNIGNNYVSWYQQLPGTAPKLIIYDNDKRPAGIPDRFSGSKSGSSATLGITGLQNGDEAEYYCGTWDSSLGGGVFGGGTKVTVLG", "notes": "VH/VL only"}}, "assay_in_all_cases": "protein array", "key": {"[1]": {"biological_target": "T1, homeobox and leucine zipper encoding (human, UniProt Q8IX15 25-550)", "T1 construct": "on protein array; also called HOMEZ", "T1 sequence": "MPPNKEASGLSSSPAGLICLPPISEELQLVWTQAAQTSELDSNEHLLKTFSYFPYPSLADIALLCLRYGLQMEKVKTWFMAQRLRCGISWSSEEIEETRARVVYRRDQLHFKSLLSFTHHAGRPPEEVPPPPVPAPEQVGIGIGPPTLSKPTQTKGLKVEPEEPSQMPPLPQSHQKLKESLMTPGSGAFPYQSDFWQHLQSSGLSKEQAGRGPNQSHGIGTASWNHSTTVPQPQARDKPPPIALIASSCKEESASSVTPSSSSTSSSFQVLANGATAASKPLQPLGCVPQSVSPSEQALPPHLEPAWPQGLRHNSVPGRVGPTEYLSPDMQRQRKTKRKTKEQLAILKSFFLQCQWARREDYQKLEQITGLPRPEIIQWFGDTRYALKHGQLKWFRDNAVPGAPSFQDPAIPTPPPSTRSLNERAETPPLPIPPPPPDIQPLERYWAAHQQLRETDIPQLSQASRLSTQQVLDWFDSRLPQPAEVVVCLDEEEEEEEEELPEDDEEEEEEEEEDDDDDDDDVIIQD"}, "[2]": {"biological_target": "T2, BAR/IMD domain containing adaptor protein 2, transcript variant 3 (human, UniProt Q9UQB8 1-511)", "T2 construct": "on protein array; also called BAIAP2", "T2 sequence": "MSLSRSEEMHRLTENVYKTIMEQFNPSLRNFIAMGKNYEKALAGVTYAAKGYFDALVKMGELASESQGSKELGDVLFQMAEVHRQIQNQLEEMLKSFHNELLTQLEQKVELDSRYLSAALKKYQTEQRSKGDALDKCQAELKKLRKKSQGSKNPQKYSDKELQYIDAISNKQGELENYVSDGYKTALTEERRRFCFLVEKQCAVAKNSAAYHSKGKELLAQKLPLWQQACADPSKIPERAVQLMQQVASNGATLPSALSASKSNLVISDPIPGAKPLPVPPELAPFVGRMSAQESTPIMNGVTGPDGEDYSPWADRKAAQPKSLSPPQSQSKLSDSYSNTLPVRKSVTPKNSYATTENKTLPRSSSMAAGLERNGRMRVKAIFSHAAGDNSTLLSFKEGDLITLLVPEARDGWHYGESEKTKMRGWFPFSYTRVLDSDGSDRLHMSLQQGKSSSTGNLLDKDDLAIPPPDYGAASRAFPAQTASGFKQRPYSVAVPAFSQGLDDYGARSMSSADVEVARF"}, "[3]": {"biological_target": "T3, leucine rich repeat containing 28, transcript variant 1 (human, UniProt Q86X40 1-367)", "T3 construct": "on protein array; also called LRRC28", "T3 sequence (Q86X40 whole entry, change not shown)": "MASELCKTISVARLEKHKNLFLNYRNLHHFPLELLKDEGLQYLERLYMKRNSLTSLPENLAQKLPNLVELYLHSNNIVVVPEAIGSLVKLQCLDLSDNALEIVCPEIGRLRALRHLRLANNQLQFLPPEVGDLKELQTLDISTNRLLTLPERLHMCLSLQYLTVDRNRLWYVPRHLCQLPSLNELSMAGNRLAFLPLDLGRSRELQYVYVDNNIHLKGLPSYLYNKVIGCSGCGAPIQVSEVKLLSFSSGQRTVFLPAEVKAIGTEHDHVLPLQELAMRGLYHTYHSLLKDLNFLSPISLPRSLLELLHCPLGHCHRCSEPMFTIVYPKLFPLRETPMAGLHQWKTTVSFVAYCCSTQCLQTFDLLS"}, "[4]": {"biological_target": "T4, growth factor receptor bound protein 2, transcript variant 1 (human, UniProt P62993 1-217)", "T4 construct": "on protein array; also called GRB2"}, "Reticulocalbin 3": {"biological_target": "T5, Reticulocalbin 3 (human, UniProt Q96D15 21-328)", "T5 construct": "on protein array; also called RCN3", "T5 sequence": "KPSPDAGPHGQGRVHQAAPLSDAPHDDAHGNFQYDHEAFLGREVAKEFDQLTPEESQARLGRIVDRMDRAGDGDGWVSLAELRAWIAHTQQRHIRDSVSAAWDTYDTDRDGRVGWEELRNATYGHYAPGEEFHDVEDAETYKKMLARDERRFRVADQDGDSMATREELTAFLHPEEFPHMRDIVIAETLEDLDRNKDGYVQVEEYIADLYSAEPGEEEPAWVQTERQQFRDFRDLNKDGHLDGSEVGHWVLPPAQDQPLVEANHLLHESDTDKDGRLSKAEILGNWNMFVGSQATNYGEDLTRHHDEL"}, "[5]": {"biological_target": "T6, synaptotagmin 12, transcript variant X4 (human, UniProt Q8IV01 1-421)", "T6 construct": "on protein array; also called SYT12", "T6 sequence": "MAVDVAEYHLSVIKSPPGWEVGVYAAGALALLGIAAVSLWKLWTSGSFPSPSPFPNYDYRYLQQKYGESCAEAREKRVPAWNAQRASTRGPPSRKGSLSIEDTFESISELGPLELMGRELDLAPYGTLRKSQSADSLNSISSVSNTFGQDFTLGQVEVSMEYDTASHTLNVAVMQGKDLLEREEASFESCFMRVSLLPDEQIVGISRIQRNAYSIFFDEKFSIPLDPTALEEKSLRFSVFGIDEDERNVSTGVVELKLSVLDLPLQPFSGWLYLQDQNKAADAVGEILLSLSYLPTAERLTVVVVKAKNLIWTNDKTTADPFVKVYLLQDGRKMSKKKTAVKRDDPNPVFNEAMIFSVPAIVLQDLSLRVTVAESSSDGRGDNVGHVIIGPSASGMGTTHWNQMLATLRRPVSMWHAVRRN"}, "[6]": {"biological_target": "T7, glycogen phosphorylase L, transcript variant 1 (human, UniProt P06737 2-847)", "T7 construct": "on protein array; also called PYGL", "T7 sequence": "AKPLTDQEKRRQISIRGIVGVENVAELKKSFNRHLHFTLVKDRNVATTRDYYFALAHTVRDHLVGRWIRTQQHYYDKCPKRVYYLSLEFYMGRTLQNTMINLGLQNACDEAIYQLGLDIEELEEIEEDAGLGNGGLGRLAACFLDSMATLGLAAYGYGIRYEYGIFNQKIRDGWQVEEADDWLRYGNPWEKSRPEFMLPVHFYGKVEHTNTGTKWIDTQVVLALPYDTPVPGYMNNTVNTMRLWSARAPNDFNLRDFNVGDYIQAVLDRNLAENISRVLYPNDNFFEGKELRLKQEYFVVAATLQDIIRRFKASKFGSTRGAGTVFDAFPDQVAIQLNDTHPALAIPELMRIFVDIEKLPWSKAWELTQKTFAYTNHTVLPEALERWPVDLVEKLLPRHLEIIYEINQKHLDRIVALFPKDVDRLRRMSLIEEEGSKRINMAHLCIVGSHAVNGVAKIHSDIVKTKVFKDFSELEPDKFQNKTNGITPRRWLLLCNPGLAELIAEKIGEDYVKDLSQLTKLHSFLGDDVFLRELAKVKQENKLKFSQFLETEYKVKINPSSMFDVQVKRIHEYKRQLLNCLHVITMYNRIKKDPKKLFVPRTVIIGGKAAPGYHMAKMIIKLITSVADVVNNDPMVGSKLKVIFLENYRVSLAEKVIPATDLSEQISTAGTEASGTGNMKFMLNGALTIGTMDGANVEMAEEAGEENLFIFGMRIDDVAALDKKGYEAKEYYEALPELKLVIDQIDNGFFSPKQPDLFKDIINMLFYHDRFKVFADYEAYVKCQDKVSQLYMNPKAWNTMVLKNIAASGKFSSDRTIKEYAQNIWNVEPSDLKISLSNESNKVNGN"}, "[7]": {"biological_target": "T8, Atpase secretory pathway ca2+ transporting 1 (human, UniProt P98194 1-909)", "T8 construct": "on protein array; also called ATP2C1", "T8 sequence": "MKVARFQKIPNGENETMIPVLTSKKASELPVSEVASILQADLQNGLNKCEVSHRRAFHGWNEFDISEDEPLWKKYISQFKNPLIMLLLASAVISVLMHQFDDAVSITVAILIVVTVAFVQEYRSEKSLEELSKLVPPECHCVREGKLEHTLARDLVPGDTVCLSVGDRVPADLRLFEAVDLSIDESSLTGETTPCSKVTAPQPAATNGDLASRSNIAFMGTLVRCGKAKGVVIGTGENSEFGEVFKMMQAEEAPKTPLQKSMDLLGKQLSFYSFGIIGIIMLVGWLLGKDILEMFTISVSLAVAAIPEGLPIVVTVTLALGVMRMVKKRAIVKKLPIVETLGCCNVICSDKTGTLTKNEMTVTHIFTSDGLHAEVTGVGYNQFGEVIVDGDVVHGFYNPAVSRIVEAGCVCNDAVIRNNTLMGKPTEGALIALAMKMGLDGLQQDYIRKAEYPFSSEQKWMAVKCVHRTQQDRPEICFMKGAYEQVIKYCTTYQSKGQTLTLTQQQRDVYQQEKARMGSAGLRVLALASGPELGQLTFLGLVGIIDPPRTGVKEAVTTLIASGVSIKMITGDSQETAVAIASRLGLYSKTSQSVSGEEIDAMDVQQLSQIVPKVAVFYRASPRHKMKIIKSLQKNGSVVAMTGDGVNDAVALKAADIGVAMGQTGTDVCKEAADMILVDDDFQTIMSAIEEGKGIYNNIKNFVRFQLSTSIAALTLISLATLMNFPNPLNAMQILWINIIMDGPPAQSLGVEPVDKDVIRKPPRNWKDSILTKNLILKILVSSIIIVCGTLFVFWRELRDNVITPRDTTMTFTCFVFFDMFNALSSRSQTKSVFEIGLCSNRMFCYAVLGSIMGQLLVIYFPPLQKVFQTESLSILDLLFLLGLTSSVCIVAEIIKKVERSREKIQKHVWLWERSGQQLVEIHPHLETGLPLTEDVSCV"}, "[8]": {"biological_target": "T9, teashirt zinc finger homeobox 2, transcript variant 1 (human, UniProt Q9NRE2 1-1034)", "T9 construct": "on protein array; also called TSHZ2", "T9 sequence": "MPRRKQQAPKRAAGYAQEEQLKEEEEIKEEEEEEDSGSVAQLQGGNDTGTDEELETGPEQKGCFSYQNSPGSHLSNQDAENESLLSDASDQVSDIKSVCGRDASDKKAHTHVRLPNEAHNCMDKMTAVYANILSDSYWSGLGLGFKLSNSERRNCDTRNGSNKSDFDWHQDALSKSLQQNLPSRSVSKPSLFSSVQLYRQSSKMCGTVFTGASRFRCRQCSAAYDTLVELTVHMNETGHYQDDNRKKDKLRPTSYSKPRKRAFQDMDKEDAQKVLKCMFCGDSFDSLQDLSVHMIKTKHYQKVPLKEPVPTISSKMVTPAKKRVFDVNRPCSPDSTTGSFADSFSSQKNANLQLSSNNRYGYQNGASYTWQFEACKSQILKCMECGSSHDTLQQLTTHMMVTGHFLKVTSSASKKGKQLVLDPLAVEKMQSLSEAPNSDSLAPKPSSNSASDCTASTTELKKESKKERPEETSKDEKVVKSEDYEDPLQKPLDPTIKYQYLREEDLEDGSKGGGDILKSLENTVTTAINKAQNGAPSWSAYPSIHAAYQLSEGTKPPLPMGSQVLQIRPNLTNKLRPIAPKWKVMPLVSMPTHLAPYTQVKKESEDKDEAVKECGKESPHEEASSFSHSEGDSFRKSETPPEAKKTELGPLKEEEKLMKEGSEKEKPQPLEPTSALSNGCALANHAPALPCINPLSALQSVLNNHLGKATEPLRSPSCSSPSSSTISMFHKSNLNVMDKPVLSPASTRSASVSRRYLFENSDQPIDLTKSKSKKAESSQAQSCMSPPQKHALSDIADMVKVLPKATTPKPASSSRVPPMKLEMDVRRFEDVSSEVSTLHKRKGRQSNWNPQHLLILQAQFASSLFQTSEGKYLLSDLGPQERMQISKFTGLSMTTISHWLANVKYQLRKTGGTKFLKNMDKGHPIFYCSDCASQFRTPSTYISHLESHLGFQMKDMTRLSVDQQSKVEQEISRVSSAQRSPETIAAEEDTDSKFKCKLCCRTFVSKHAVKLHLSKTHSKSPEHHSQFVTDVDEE"}}}
{"binder": "B1", "values": [{"measurement": "binding result", "setting": "[1]", "value": "binds"}, {"measurement": "binding result", "setting": "[2]", "value": "binds"}]}
{"binder": "B2", "values": [{"measurement": "binding result", "setting": "[3]", "value": "binds"}]}
{"binder": "B3", "values": [{"measurement": "binding result", "setting": "[4]", "value": "binds"}]}
{"binder": "B4", "values": [{"measurement": "binding result", "setting": "Reticulocalbin 3", "value": "binds"}, {"measurement": "binding result", "setting": "[5]", "value": "binds"}, {"measurement": "binding result", "setting": "[6]", "value": "binds"}]}
{"binder": "B5", "values": [{"measurement": "binding result", "setting": "[7]", "value": "binds"}, {"measurement": "binding result", "setting": "[8]", "value": "binds"}]}
